Source: patent US7732183B2, “Method for refolding enzymes” (Elan Pharmaceuticals, Inc., priority 2001, dated 2010)
Values joined by “and” are separate entries in the source; they are usually repeats but may differ in a detail not shown here. Identical values can stand only once.

Columns and labels:
Format in all cases: biochemical
[1] = test system: substrate SEISY↓EVEFRWKK [SEQ ID NO:9] or GLTNIKTEEISEISY↓EVEFRWKK [SEQ ID NO:10]; experiment: BACE activity assay: HPLC with fluorescence detection of peptide substrate cleavage; conditions: for Activity %: relative to recombinant BACE expressed in CHO cells (=100), E. coli enzymes refolded as in Example 4 and purified
Description: (§1) Peptide substrates SEISY↓EVEFRWKK [SEQ ID NO: 9] and GLTNIKTEEISEISY↓EVEFRWKK [SEQ ID NO: 10] were synthesized by solid-phase technology (arrows indicating cleavage site). The assay mixture contained in a volume of 200 μl, 0.1 M Sodium acetate, pH 5.0, 0.5-20 nM BACE and 25 μM substrate SEISY↓EVEFRWKK [SEQ ID NO:9] or GLTNIKTEEISEISY↓EVEFRWKK [SEQ ID NO:10]. The reaction mixture was incubated for 2 hours at 37° C.; reactions were stopped with 100 μl of 4% TFA in H2O. A 50 μl portion was injected into an Agilent 1100 Series HPLC equipped with an Alltech Rocket™ column (7 mm i.d.×53 mm length, C18, 3 μm) pre-equilibrated with 88% reagent A (0.1% TFA in water), 12% reagent B (0.1% TFA in acetonitrile). The flow rate over this column was 3 ml per minute. The products (including uncleaved substrate) were eluted from the column with the following linear gradients:
(§2) The Agilent 1100 Series HPLC is equipped with a fluorescence detector that allows detection of the substrate disappearance and EVEFRWKK [SEQ ID NO:29] product formation. Activity was expressed as Fluorescence peak area generated by the liberation of a fluorescent (Tryptophan fluorescence) product upon cleavage of substrate. Fluorescence detection is monitored at 348 nM upon excitation at 280 nm.

[2] = target: T1, substrate SEISY↓EVEFRWKK [SEQ ID NO:9] or GLTNIKTEEISEISY↓EVEFRWKK [SEQ ID NO:10] (Homo sapiens, UniProt P56817); experiment: as above; conditions: relative to CHO BACE, Example 5 optimized refolding method
T1 construct: made in house; control enzyme from CHO cells
Description: as §1, §2

[3] = test system: SEISY-↓-EVEFRWKK [SEQ ID NO: 9]; experiment: Kinetic comparison of CHO and E. coli BACE (Vmax, kcat, Km); conditions: substrate SEQ ID NO: 9, 1 to 300 μM; pH 5.5, 50 mM NaCl, 37° C., 1 h, enzyme 1 nM
[4] = test system: GLTNIKTEEISEISY-↓-EVEFRWKK [SEQ ID NO: 10]; experiment: as above; conditions: substrate SEQ ID NO: 10, 1 to 300 μM; pH 5.5, 50 mM NaCl, 37° C., 1 h, enzyme 1 nM
[5] = target: T2, EIDL-↓-MVLDWHDR [SEQ ID NO: 13] (Homo sapiens, UniProt P56817); experiment: as above; conditions: substrate SEQ ID NO: 13, 1 to 300 μM; pH 5.5, 50 mM NaCl, 37° C., 1 h, enzyme 1 nM
T2 construct: made in house; host or cells: CHO cells, purified from conditioned media

B1: PcDNA3.1Asp2LΔTM(His)6 + HIV Pr: CHO-expressed BACE cleaved with HIV-1 protease, SEQ ID NO:32 (protein, listed as Homo sapiens)
chain: VEMVDNLRGKSGQGYYVEMTVGSPPQTLNILVDTGSSNFAVGAAPHPFLHRYYQRQLSSTYRDLRKGVYVPYTQGKWEGELGTDLVSIPHGPNVTVRANIAAITESDKFFINGSNWEGILGLAYAEIARPDDSLEPFFDSLVKQTHVPNLFSLQLCGAGFPLNQSEVLASVGGSMIIGGIDHSLYTGSLWYTPIRREWYYEVIIVRVEINGQDLKMDCKEYNYDKSIVDSGTTNLRLPKKVFEAAVKSIKAASSTEKFPDGFWLGEQLVCWQAGTTPWNIFPVISLYLMGEVTNQSFRITILPQQYLRPVEDVATSQDDCYKFAISQSSTGTVMGAVIMEGFYVVFDRARKRIGFAVSACHVHDEFRTAAVEGPFVTLDMEDCGYNIPQTDESHHHHHH
modifications: His6 tag; HIV Protease treated BACE Asp2-2L-TM-His6
In the case of B1, the “more enzymatic activity than untreated BACE” value ([1]; BACE expressed in CHO cells, HIV-1 protease treated and purified) is reported as 10-20% and the Activity % [1] is reported as 120%.

B2: pET11a-BACE: T7 tag-GSM-BACE (A-8 to S432), SEQ ID NO:5, expressed in E. coli and refolded (protein, listed as Homo sapiens)
chain: MASMTGGQQMGRGSMAGVLPAHGTQHGIRLPLRSGLGGAPLGLRLPRETDEEPEEPGRRGSFVEMVDNLRGKSGQGYYVEMTVGSPPQTLNILVDTGSSNFAVGAAPHPFLHRYYQRQLSSTYRDLRKGVYVPYTQGKWEGELGTDLVSIPHGPNVTVRANIAAITESDKFFINGSNWEGILGLAYAEIARPDDSLEPFFDSLVKQTHVPNLFSLQLCGAGFPLNQSEVLASVGGSMIIGGIDHSLYTGSLWYTPIRREWYYEVIIVRVEINGQDLKMDCKEYNYDKSIVDSGTTNLRLPKKVFEAAVKSIKAASSTEKFPDGFWLGEQLVCWQAGTTPWNIFPVISLYLMGEVTNQSFRITILPQQYLRPVEDVATSQDDCYKFAISQSSTGTVMGAVIMEGFYVVFDRARKRIGFAVSACHVHDEFRTAAVEGPFVTLDMEDCGYNIPQTDES
modifications: T7 tag
For B2, the Activity % [1] was 47%, the Activity % ([1]; listed as pET11a BACE) was “about 47%” and the Activity % ([1]; listed as recombinant BACE) was 28%.

B3: pQE70-BACE: (M)R36 to S432 BACE-RS(His)6 lacking prosequence, SEQ ID NO:3, expressed in E. coli and refolded (protein, listed as Homo sapiens)
chain: MRGSFVEMVDNLRGKSGQGYYVEMTVGSPPQTLNILVDTGSSNFAVGAAPHPFLHRYYQRQLSSTYRDLRKGVYVPYTQGKWEGELGTDLVSIPHGPNVTVRANIAAITESDKFFINGSNWEGILGLAYAEIARPDDSLEPFFDSLVKQTHVPNLFSLQLCGAGFPLNQSEVLASVGGSMIIGGIDHSLYTGSLWYTPIRREWYYEVIIVRVEINGQDLKMDCKEYNYDKSIVDSGTTNLRLPKKVFEAAVKSIKAASSTEKFPDGFWLGEQLVCWQAGTTPWNIFPVISLYLMGEVTNQSFRITILPQQYLRPVEDVATSQDDCYKFAISQSSTGTVMGAVIMEGFYVVFDRARKRIGFAVSACHVHDEFRTAAVEGPFVTLDMEDCGYNIPQTDESRSHHHHHH
modifications: His6 tag
With B3 the Activity % ([2]; first elution from affinity column) was 171%, the Activity % ([2]; second elution from affinity column) was 125% and the Km [3] was 55.5 µM. The Vmax [3] was 0.345 µmol/min/mg, the kcat [3] was 0.273 s⁻¹ and the Km [4] was 5.4 µM. For the same molecule, the Vmax [4] was 0.400 µmol/min/mg and the kcat [4] was 0.317 s⁻¹.

B4: pET11a-BACE + HIV Pr: V40 to S432 BACE fragment, SEQ ID NO:31, obtained by HIV-1 protease treatment of pET11a-BACE (protein, listed as Homo sapiens)
chain: VEMVDNLRGKSGQGYYVEMTVGSPPQTLNILVDTGSSNFAVGAAPHPFLHRYYQRQLSSTYRDLRKGVYVPYTQGKWEGELGTDLVSIPHGPNVTVRANIAAITESDKFFINGSNWEGILGLAYAEIARPDDSLEPFFDSLVKQTHVPNLFSLQLCGAGFPLNQSEVLASVGGSMIIGGIDHSLYTGSLWYTPIRREWYYEVIIVRVEINGQDLKMDCKEYNYDKSIVDSGTTNLRLPKKVFEAAVKSIKAASSTEKFPDGFWLGEQLVCWQAGTTPWNIFPVISLYLMGEVTNQSFRITILPQQYLRPVEDVATSQDDCYKFAISQSSTGTVMGAVIMEGFYVVFDRARKRIGFAVSACHVHDEFRTAAVEGPFVTLDMEDCGYNIPQTDES
modifications: BACE V40- S432 fragment
In the case of B4, the “increase in enzyme activity after HIV-1 protease treatment versus untreated enzyme” value ([1]; HIV-1 protease cleavage at F39-V40, then purification) is reported as “about 5 fold”, the Activity % [1] is reported as 248% and the Activity % ([1]; listed as V^40 . . . S^432) is reported as 248% and 222%.

B5: pQE80L-BACE + HIV Pr: V40 to S432 BACE fragment, SEQ ID NO:31, obtained by HIV-1 protease treatment of pQE80L-BACE (protein, listed as Homo sapiens)
chain: VEMVDNLRGKSGQGYYVEMTVGSPPQTLNILVDTGSSNFAVGAAPHPFLHRYYQRQLSSTYRDLRKGVYVPYTQGKWEGELGTDLVSIPHGPNVTVRANIAAITESDKFFINGSNWEGILGLAYAEIARPDDSLEPFFDSLVKQTHVPNLFSLQLCGAGFPLNQSEVLASVGGSMIIGGIDHSLYTGSLWYTPIRREWYYEVIIVRVEINGQDLKMDCKEYNYDKSIVDSGTTNLRLPKKVFEAAVKSIKAASSTEKFPDGFWLGEQLVCWQAGTTPWNIFPVISLYLMGEVTNQSFRITILPQQYLRPVEDVATSQDDCYKFAISQSSTGTVMGAVIMEGFYVVFDRARKRIGFAVSACHVHDEFRTAAVEGPFVTLDMEDCGYNIPQTDES
modifications: BACE V40- S432 fragment
B5 gave an Activity % [1] of 222%.

B6: PcDNA3.1Asp2LΔTM(His)6: Recombinant human BACE lacking transmembrane domain, His6 tag, expressed in CHO cells (control), SEQ ID NO:23 (protein, listed as Homo sapiens)
chain: MAQALPWLLLWMGAGVLPAHGTQHGIRLPLRSGLGGAPLGLRLPRETDEEPEEPGRRGSFVEMVDNLRGKSGQGYYVEMTVGSPPQTLNILVDTGSSNFAVGAAPHPFLHRYYQRQLSSTYRDLRKGVYVPYTQGKWEGELGTDLVSIPHGPNVTVRANIAAITESDKFFINGSNWEGILGLAYAEIARPDDSLEPFFDSLVKQTHVPNLFSLQLCGAGFPLNQSEVLASVGGSMIIGGIDHSLYTGSLWYTPIRREWYYEVIIVRVEINGQDLKMDCKEYNYDKSIVDSGTTNLRLPKKVFEAAVKSIKAASSTEKFPDGFWLGEQLVCWQAGTTPWNIFPVISLYLMGEVTNQSFRITILPQQYLRPVEDVATSQDDCYKFAISQSSTGTVMGAVIMEGFYVVFDRARKRIGFAVSACHVHDEFRTAAVEGPFVTLDMEDCGYNIPQTDESHHHHHH
modifications: His6 tag; Human soluble BACE with 6-His tag
B6 gave an Activity % [1] of 100%, a Km [5] of 12 µM and a Vmax [5] of 0.0196 µmol/min/mg. It also gave a kcat [5] of 0.0155 s⁻¹, a Km [3] of 52 µM and a Vmax [3] of 0.294 µmol/min/mg. The kcat [3] was 0.233 s⁻¹, the Km [4] was 4.9 µM and the Vmax [4] was 0.435 µmol/min/mg. It also gave a kcat [4] of 0.345 s⁻¹.
